The values below come from paper PMC11530556.

The assay addresses full-length Titin N2B unique sequence (N2B-us) single-molecule construct, 6His-Avi-2I27-N2B-2I27-Spy (human). The assay is described as follows: magnetic tweezers single-molecule manipulation; full-length N2B-us tether; jump to 8 pN procedure: 1 pN for 10 s, 8 pN for 20 s, back to 1 pN; bead height difference at 1 pN; 200 nM FHL2; five tethers.

Chain of full-length Titin N2B unique sequence (N2B-us) single-molecule construct, 6His-Avi-2I27-N2B-2I27-Spy (human) (Q8WZ42 3717-4288): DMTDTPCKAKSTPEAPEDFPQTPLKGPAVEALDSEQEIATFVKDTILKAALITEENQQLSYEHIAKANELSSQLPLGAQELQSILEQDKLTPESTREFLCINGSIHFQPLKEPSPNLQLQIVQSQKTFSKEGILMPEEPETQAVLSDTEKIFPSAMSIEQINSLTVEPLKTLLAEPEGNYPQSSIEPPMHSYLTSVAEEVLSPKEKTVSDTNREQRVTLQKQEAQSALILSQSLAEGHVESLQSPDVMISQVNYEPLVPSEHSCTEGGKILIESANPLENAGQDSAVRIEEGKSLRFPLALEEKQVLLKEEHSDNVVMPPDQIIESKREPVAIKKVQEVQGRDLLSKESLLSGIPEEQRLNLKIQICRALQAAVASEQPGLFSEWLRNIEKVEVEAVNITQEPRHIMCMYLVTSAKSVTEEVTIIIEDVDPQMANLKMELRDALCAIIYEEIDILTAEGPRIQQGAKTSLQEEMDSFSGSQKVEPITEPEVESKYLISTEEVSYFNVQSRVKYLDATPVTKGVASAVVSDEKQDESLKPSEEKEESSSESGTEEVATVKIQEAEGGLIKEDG

Substance “Recombinant GST-FHL2 protein (four-and-a-half LIM domain protein 2) (natural protein)” came in with an average extension difference at 1 pN before and after 20 s at 8 pN, with 200 nM FHL2 of 10 nm.
